Measurements reported in patent US20250262210A1 (TRUSTEES OF COLUMBIA UNIVERSITY IN THE CITY OF NEW YORK, published 2025).

How the values were obtained:
Assay in all cases: IP/MS, LZTR1 wild type-FLAG, U87
VPS18 = molecular target: T1, VPS18 (human, UniProt Q9P253 2-973)
T1 sequence (looked up): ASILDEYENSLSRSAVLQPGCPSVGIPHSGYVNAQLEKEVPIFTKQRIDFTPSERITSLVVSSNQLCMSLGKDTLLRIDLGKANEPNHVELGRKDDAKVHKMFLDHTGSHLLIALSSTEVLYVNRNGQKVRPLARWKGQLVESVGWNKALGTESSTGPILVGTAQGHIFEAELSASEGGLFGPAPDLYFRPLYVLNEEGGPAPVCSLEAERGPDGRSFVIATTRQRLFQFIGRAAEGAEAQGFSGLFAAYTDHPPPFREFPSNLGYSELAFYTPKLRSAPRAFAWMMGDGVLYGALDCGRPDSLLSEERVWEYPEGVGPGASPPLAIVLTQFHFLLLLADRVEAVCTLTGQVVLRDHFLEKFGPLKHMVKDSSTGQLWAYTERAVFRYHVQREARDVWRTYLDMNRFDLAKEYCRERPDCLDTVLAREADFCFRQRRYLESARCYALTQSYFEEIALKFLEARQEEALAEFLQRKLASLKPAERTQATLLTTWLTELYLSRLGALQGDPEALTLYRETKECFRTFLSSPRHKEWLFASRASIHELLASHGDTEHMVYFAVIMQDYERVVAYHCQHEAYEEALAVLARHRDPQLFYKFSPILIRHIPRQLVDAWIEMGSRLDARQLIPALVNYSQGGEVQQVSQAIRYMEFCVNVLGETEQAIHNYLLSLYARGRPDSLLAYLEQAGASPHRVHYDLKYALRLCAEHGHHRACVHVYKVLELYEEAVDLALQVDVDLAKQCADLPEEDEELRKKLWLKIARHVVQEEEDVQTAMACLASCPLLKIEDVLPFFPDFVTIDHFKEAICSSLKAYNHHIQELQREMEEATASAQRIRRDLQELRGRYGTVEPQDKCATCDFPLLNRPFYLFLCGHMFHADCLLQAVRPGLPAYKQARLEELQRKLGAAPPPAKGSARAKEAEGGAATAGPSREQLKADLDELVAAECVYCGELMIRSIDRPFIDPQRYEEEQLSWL
Summary of the method: (§1)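 Read-out: spectral counts from LC-MS/MS (Orbitrap Fusion) after MaxQuant identification. Variable modifications were Met oxidation, protein N-terminal acetylation and N/Q deamidation.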

PARP14 = PARP14 (human, UniProt Q460N5 1-1801, limits assumed)
PARP14, sequence (Q460N5 whole entry): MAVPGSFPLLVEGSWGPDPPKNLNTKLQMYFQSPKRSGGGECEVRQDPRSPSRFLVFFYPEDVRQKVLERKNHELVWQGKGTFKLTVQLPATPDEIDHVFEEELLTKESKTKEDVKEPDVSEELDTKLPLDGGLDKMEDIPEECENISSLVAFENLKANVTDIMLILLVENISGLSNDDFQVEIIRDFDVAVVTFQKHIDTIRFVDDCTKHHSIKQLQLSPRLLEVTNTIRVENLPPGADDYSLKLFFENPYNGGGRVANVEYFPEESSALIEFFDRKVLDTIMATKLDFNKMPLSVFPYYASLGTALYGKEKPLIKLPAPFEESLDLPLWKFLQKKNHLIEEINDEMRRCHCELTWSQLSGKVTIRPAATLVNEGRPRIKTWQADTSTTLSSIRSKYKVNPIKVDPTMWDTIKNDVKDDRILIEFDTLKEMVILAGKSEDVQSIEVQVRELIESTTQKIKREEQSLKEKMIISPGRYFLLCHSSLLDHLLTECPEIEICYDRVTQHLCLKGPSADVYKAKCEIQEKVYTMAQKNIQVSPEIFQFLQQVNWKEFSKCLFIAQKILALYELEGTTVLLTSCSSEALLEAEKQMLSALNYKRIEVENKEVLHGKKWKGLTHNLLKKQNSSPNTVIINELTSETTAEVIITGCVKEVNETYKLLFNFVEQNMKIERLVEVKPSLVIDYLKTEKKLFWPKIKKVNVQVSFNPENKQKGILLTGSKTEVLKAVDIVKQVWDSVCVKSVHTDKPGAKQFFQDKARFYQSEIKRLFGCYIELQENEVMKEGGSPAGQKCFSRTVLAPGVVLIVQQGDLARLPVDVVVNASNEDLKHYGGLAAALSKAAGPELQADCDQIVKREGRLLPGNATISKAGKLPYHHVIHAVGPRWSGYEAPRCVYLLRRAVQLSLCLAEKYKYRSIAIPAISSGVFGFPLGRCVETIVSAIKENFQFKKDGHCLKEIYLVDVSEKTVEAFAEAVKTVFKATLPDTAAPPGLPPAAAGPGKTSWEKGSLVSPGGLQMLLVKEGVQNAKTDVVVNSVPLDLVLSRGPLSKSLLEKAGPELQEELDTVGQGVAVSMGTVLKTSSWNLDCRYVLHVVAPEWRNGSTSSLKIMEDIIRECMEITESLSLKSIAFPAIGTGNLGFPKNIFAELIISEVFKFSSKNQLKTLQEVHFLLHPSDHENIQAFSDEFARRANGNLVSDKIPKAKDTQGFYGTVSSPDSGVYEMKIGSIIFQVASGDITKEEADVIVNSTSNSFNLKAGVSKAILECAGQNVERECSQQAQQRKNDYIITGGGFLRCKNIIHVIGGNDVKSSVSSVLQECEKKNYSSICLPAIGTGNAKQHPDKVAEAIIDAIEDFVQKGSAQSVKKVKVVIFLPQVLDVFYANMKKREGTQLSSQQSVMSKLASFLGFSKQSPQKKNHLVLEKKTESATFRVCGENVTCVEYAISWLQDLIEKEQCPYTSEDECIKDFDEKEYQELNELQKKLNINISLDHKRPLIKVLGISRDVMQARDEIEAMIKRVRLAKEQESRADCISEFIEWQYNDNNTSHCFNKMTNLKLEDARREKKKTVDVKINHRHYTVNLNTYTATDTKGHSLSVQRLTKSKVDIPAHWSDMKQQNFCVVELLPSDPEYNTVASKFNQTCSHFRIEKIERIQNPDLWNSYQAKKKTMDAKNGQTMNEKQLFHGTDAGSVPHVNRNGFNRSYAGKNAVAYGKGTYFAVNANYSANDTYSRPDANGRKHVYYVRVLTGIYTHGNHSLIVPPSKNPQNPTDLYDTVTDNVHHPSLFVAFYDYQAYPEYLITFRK
Summary of the method: as §1

PPFIBP1 = molecular target: T2, PPFIBP1 (human, UniProt Q86W92 1-1011, limits assumed)
T2 sequence (looked up): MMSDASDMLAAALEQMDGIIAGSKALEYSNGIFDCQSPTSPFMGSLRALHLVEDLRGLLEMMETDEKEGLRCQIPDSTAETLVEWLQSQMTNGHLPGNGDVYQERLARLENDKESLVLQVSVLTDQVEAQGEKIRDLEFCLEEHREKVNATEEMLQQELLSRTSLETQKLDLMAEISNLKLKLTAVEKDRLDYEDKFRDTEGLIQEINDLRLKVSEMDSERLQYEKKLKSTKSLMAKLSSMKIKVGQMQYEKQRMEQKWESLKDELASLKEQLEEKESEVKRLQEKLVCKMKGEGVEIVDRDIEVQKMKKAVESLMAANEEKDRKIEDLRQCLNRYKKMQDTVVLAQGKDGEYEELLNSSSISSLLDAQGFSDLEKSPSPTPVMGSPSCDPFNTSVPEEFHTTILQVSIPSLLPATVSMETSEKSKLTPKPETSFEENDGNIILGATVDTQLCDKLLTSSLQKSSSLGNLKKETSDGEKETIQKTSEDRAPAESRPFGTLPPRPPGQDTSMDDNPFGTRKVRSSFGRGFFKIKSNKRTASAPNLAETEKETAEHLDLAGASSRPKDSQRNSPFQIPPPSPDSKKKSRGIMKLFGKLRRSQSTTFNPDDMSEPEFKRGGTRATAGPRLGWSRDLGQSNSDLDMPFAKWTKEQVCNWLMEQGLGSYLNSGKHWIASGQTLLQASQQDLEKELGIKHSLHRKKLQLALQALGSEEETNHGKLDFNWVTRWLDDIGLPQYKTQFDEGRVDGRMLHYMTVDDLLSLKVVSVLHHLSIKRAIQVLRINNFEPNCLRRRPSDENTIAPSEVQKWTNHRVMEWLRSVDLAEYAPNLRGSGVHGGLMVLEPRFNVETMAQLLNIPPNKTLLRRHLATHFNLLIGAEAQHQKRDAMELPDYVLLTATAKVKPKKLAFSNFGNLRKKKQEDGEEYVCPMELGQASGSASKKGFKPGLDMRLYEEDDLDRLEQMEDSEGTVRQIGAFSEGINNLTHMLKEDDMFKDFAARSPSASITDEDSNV
Summary of the method: as §1

Measured: binding result

B1: LZTR1-FLAG (other, human, UniProt Q8N653 1-840, looked up)
chain: MAGPGSTGGQIGAAALAGGARSKVAPSVDFDHSCSDSVEYLTLNFGPFETVHRWRRLPPCDEFVGARRSKHTVVAYKDAIYVFGGDNGKTMLNDLLRFDVKDCSWCRAFTTGTPPAPRYHHSAVVYGSSMFVFGGYTGDIYSNSNLKNKNDLFEYKFATGQWTEWKIEGRLPVARSAHGATVYSDKLWIFAGYDGNARLNDMWTIGLQDRELTCWEEVAQSGEIPPSCCNFPVAVCRDKMFVFSGQSGAKITNNLFQFEFKDKTWTRIPTEHLLRGSPPPPQRRYGHTMVAFDRHLYVFGGAADNTLPNELHCYDVDFQTWEVVQPSSDSEVGGAEVPERACASEEVPTLTYEERVGFKKSRDVFGLDFGTTSAKQPTQPASELPSGRLFHAAAVISDAMYIFGGTVDNNIRSGEMYRFQFSCYPKCTLHEDYGRLWESRQFCDVEFVLGEKEECVQGHVAIVTARSRWLRRKITQARERLAQKLEQEAAPVPREAPGVAAGGARPPLLHVAIREAEARPFEVLMQFLYTDKIKYPRKGHVEDVLLIMDVYKLALSFQLCRLEQLCRQYIEASVDLQNVLVVCESAARLQLSQLKEHCLNFVVKESHFNQVIMMKEFERLSSPLIVEIVRRKQQPPPRTPLDQPVDIGTSLIQDMKAYLEGAGAEFCDITLLLDGHPRPAHKAILAARSSYFEAMFRSFMPEDGQVNISIGEMVPSRQAFESMLRYIYYGEVNMPPEDSLYLFAAPYYYGFYNNRLQAYCKQNLEMNVTVQNVLQILEAADKTQALDMKRHCLHIIVHQFTKVSKLPTLRSLSQQLLLDIIDSLASHISDKQCAELGADI
notes: Expressed in HEK 293T, HeLa or U87 cells; used as cell lysate; also called LZTR1 wild type-FLAG; LZTR1 WT; not shown: FLAG tag at the C-terminus
binds: VPS18 | PARP14 | PPFIBP1
